This passage reports Kd and fold increase in affinity against wild type results from paper PMC7547085, “Specific and direct modulation of the interaction between adhesion GPCR GPR56/ADGRG1 and tissue transglutaminase 2 using synthetic ligands” (Scientific Reports, 2020).

Numbering of substitutions follows the chain as printed.

Assay [1] addresses mouse tissue transglutaminase 2 C-terminal D3D4 domains (mTG2 D3D4) (mouse) (UniProt P21981). As to the kind of experiment: bead-binding assay read by flow cytometry; titration of monomeric biotinylated GPR56 fragments on TG2 D3D4-coated M280 beads; detected with neutravidin-650; one-to-one binding fit; apparent KD. On the technique in general: In flow cytometry, cells or beads pass a laser one at a time.

Assay [2] deals with T1, mouse tissue transglutaminase 2 C-terminal D3D4 domains (mTG2 D3D4) (mouse, UniProt P21981 471-686, biotin on the AVI-tag).
T1 construct: tissue transglutaminase 2 (TG2), mouse, domains D3 and D4, residues T471-A686; Used on M280 beads, or tetramerized with neutravidin-650 to stain cells; not shown: AVI-tag, N-terminal, kept
T1 sequence (looked up): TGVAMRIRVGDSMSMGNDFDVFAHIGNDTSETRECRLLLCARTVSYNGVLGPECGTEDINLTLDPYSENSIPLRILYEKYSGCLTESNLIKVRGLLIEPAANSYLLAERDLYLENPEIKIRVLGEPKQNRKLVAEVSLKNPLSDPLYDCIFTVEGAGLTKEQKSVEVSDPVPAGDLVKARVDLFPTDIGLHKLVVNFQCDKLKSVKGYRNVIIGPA
The description is as above. As to conditions: both partners purified.

Assay [3] concerns the target T2, mouse tissue transglutaminase 2 C-terminal D3D4 domains (mTG2 D3D4) (mouse, UniProt P21981 471-686, biotin on the AVI-tag).
T2 chain: T1 sequence (looked up)
The assay is described as follows: FACS.

For the molecule “human GPR56 ECR H89A (domain or fragment)”, the Kd in assay [1] was found to be 790 nM.

B1: mouse GPR56/ADGRG1 extracellular region (ECR), wild type (domain or fragment)
chain: PREDFRFCGQRNQTQQSTLHYDQSSEPHIFVWNTEETLTIRAPFLAAPDIPRFFPEPRGLYHFCLYWSRHTGRLHLRYGKHDYLLSSQASRLLCFQKQEQSLKQGAPLIATSVSSWQIPQNTSLPGAPSFIFSFHNAPHKVSHNASVDMCDLKKELQQLSRYLQHPQKAAKRPTAAFISQQLQSLESKLTSVSFLGDTLSFEEDRVNATVWKLPPTAGLEDLHIHSQKEEEQSEVQAYSLLLPRAVFQQTRGRRRDDAKRLLVVDFSSQALFQDKNSSQVLGEKVLGIVVQNTKVTNLSDPVVLTFQHQPQPKNVTLQCVFWVEDPASSSTGSWSSAGCETVSRDTQTSCLCNHLTYFAVLMVS
modifications: biotin on the AVI-tag
For B1, the Kd in assay [2] was found to be 440 ± 20 nM.

B2: mouse GPR56 ECR H89A (domain or fragment)
chain: B1 chain with H62A
modifications: biotin on the AVI-tag
B2: in assay [2], the Kd is 880 ± 80 nM.

B3: human GPR56/ADGRG1 extracellular region (ECR), wild type (domain or fragment)
chain: RGHREDFRFCSQRNQTHRSSLHYKPTPDLRISIENSEEALTVHAPFPAAHPASRSFPDPRGLYHFCLYWNRHAGRLHLLYGKRDFLLSDKASSLLCFQHQEESLAQGPPLLATSVTSWWSPQNISLPSAASFTFSFHSPPHTAAHNASVDMCELKRDLQLLSQFLKHPQKASRRPSAAPASQQLQSLESKLTSVRFMGDMVSFEEDRINATVWKLQPTAGLQDLHIHSRQEEEQSEIMEYSVLLPRTLFQRTKGRSGEAEKRLLLVDFSSQALFQDKNSSQVLGEKVLGIVVQNTKVANLTEPVVLTFQHQLQPKNVTLQCVFWVEDPTLSSPGHWSSAGCETVRRETQTSCFCNHLTYFAVLMVSSVEVDAVHKH
modifications: biotin on the AVI-tag
For B3, the Kd in assay [2] was found to be 330 ± 15 nM.

B4: mouse GPR56 ECR S150A (domain or fragment)
chain: GSPREDFRFCGQRNQTQQSTLHYDQSSEPHIFVWNTEETLTIRAPFLAAPDIPRFFPEPRGLYHFCLYWSRHTGRLHLRYGKHDYLLSSQASRLLCFQKQEQSLKQGAPLIATSVSSWQIPQNTALPGAPSFIFSFHNAPHKVSHNASVDMCDLKKELQQLSRYLQHPQKAAKRPTAAFISQQLQSLESKLTSVSFLGDTLSFEEDRVNATVWKLPPTAGLEDLHIHSQKEEEQSEVQAYSLLLPRAVFQQTRGRRRDDAKRLLVVDFSSQALFQDKNSSQVLGEKVLGIVVQNTKVTNLSDPVVLTFQHQPQPKNVTLQCVFWVEDPASSSTGSWSSAGCETVSRDTQTSCLCNHLTYFAVLMVSSTEVEATHKHY
modifications: biotin on the AVI-tag
Turning to B4, the fold increase in affinity against wild type in assay [1] amounted to 40 fold. Also, the Kd in assay [3] worked out at 11 nM.
